Data: patent USRE48599E1, “Compositions comprising TLIA-Ig fusion protein for the regulation of T regulatory cells, and methods for their use” (University of Miami, priority 2013, dated 2021)

B1: rmTL1A-Ig: extracellular domain of rhesus macaque TL1A fused to hinge-CH2-CH3 domain of rhesus macaque IgG1, SEQ ID NO: 10 (protein)
chain: METDTLLLWVLLLWVPGSTGDLEIKTCGGGSKPPTCPPCPAPELLGGPSVFLFPPKPKDTLMISRTPEVTCVVVDVSQEDPDVKFNWYVNGAEVHHAQTKPRETQYNSTYRVVSVLTVTHQDWLNGKEYTCKVSNKALPVPIQKTISKDKGQPREPQVYTLPPSREELTKNQVSLTCLVKGFYPSDIVVEWENSGQPENTYKTTPPVLDSDGSYFLYSKLTVDKSRWQQGNVFSCSVMHEALHNHYTQEFKGQEFAPSHQQVYAPLRADGDKPRAHLTVVTQTPTQHFKNQFPALHWEHELGLAFTKNRMNYTNKFLLIPESGDYFIYSQVTFRGMTSECSEIRQAGRPNKPDSITVVITKVTDSYPEPTQLLMGTKSVCEVGSNWFQPIYLGPMFSLQEGDKLMVNVSDISLVDYTKEDKTFFGAFLL

What was measured:
[1] = Safety of TL1A-Ig in rhesus macaques (observations, chemistries, CBC, histopathology); type: in vivo; details: necropsy day 21, 1.5 mg/kg; for histopathology of midbrain, brainstem, liver and pancreas: H&E sections; for histopathology of sigmoid colon / histopathology of terminal ileum: four out of four animals
Protocol: (§1) Safety and Activity of TL1A-Ig in Rhesus Macaque The safety and efficacy of TL1A-Ig in non-human primates (NHP) (Indian-origin macaca mulatta) were determined. Following routine screening and 60-day quarantine, rhesus macaque (rm) TL1A-Ig or human (h) TL1A-Ig were administered to the NHP on Day 0 by intravenous (IV) bolus infusion (15 minutes) Animal weights and cage-side observations were performed daily and peripheral blood was collected for analysis of complete blood counts, routine chemistries, CD4 TruCounts, serum isolation and flow cytometry analysis. For flow cytometry analysis, peripheral blood cells were counted on a Countess automated cell counter and aliquots of 1.5×10^6 cells were distributed per sample tube, FMO (Fluorescent Minus One), controls, and compensation tubes. Test samples were stained in D-PBS and 0.5% FBS with 1 μL/mL live dead aqua blue discriminator (Life Technologies). Test samples and appropriate controls were surface stained for 30 minutes with the indicated cocktails of antibodies (purchased from BD, Becton Dickinson, eBioscience or Life Technologies). For intracellular staining, cells were permeabilized with Fix/perm solution (eBioscience) for 30 minutes at 4° C. Cells were washed and stained intracellularly with anti-FoxP3 antibody for 30 minutes. Following staining, cells were washed and resuspended in 300 μL, FACs wash buffer for acquisition on a BD™ LSR11 flow cytometer (Beckton Dickinson (BD)). Cells were acquired and analysis was done of FlowJo software (Tree Star, Inc., Ashland, Oreg.). For CD4/CD8 Trucounts, CD45, CD3, CD4 and CD8 antibodies were dispensed in TruCount tubes (BD, Cat.No. 340334); 50 uL samples were added and allowed to stain for 15 minutes at room temperature in the dark. Subsequently, samples are lysed with 450 μL FACS lysing solution, and incubated for 15 minutes. Sample tubes were analyzed in the cytometer (Calibur, BD). The events were gated on lymphocytes in side scatter (SSC) dot plot and the CD45-positive population was selected, and then reported: CD3+CD4+ T cells, and CD3+CD8+ T cells. For multiplex analysis of serum cytokines, serum from the indicated days was collected and samples and controls for standard curves were placed in filter plates, and then diluted ¼, and incubated for 2 hour at room temperature with anti-cytokine beads. The content was removed and washed 2 times with the buffer before adding a mixture of biotinylated detection antibodies to each well. After incubating with detection antibody for 1 hour, plates were washed 2 times and incubated for 30 minutes with streptavidin-PE. Plates were again washed and wells were resuspended with 150 μL sheath fluid; plates were then read and analyzed on the Luminex® SD Analyzer (Life Technologies, Inc.). The PE signal (Median Fluorescent Intensity, MFI) is proportional to the amount of each cytokine present in the sample; concentrations were calculated from the standard curve.
(§2) An inherent limitation of rodent animal models is related to the highly controlled and restricted history of foreign antigen challenge of laboratory animals bred and housed under pathogen-free conditions. Given the antigen-dependent activity of TNFRSF25 agonists, this limitation has important consequences for translational studies of these agents into NHP, wherein the history of foreign antigen exposure is dramatically more diverse. To address this question, rhesus macaque TL1A-Ig (rmTL1A-Ig) was produced and tested in NHP. Treatment-naïve Indian-origin rhesus macaques (nonhuman primates (NHP)) were procured, housed and treated by expert personnel at Advanced Bioscience Laboratories (ABL, Rockville, Md.). Rhesus macaque TL1A-Ig (rmTL1A-Ig) and human (h) TL1A-Ig were manufactured and purified as described above and shipped to ABL personnel at the indicated concentration in blinded tubes diluted in a total volume of 10 ml PBS. […]

[2] = Serum half-life of TL1A-Ig in rhesus macaques; type: in vivo, rhesus macaque; details: NHP serum, IV, one-phase exponential decay model
Protocol: Safety and Activity of TL1A-Ig in Rhesus Macaque The safety and efficacy of TL1A-Ig in non-human primates (NHP) (Indian-origin macaca mulatta) were determined. Following routine screening and 60-day quarantine, rhesus macaque (rm) TL1A-Ig or human (h) TL1A-Ig were administered to the NHP on Day 0 by intravenous (IV) bolus infusion (15 minutes) Animal weights and cage-side observations were performed daily and peripheral blood was collected for analysis of complete blood counts, routine chemistries, CD4 TruCounts, serum isolation and flow cytometry analysis. For flow cytometry analysis, peripheral blood cells were counted on a Countess automated cell counter and aliquots of 1.5×10^6 cells were distributed per sample tube, FMO (Fluorescent Minus One), controls, and compensation tubes. Test samples were stained in D-PBS and 0.5% FBS with 1 μL/mL live dead aqua blue discriminator (Life Technologies). […] Sample tubes were analyzed in the cytometer (Calibur, BD). […] Plates were again washed and wells were resuspended with 150 μL sheath fluid; plates were then read and analyzed on the Luminex® SD Analyzer (Life Technologies, Inc.). The PE signal (Median Fluorescent Intensity, MFI) is proportional to the amount of each cytokine present in the sample; concentrations were calculated from the standard curve. […]

[3] = system: human Tregs; test: Human Treg proliferation in humanized mice (NSG-hu); type: in vivo
Excerpt: Commercial antibodies for use in flow cytometry, ELISA and in vivo studies were purchased from BD Pharmingen, eBioscience or BioLegend. The Armenian Hamster IgG Isotype control was bought from eBioscience. Armenian hamster hybridomas producing antibodies to mouse TNFRSF25 (4C12, agonistic) were generated as described in Fang, et al. 2008. Essential role of TNF receptor superfamily 25 (TNFRSF25) in the development of allergic lung inflammation. J Exp Med 205:1037-1048. Briefly, 4C12, hTL1A-Ig and rmTL1A-Ig were produced in hollow fiber bioreactors (Fibercell Systems, Frederick, Md.) and purified from serum-free supernatants on a protein G (4C12) or protein A (TL1A-Ig) column (GE Healthcare, UK). For flow cytometry analysis, single cell suspensions were prepared from spleen and lymph nodes. 10^6 cells were pre-blocked with anti-mouse CD16/CD32 and stained with different antibody combinations. Intracellular staining was performed according to standard procedures. Flow cytometric acquisition was performed on a Becton Dickinson Fortessa instrument and […] or FlowJo software was used for analysis.
Human fetal livers from elective terminations (12-20 weeks of gestational age, Advanced Bioscience Resources) were acquired on a fee for service basis. CD34+ cells were enriched using immunomagnetic beads according to the manufacturer's instructions following density gradient centrifugation of single cell suspensions (CD34+ selection kit; Miltenyi Biotec, Auburn, Calif.). Purity of CD34+ cells isolated was evaluated by flow cytometry and was >85%. Cells were aliquotted and frozen for later HLA typing and transplanted into sub-lethally irradiated neonatal NSG mice. HLA typed CD34+ cells hematopoietic stem cells (HSC) were placed into culture containing 10% human serum, 10 ng/ml each of interleukin (IL)-3, IL-6 and stem cell factor (SCF) in IMDM for 3-5 days. On the day of transplant, cells were harvested from culture dishes and washed in HBSS and CFU and LTC-IC assays were performed to evaluate proliferation and differentiation potential. These assays were performed using standard reagents (StemCell Inc.) and methods as published by the manufacturer. CFU potential was identical to bone marrow progenitor cells following 14 day culture in methylcellulose media supplemented with SCF, GM-CSF, IL-3 and EPO. These assays readily reveal whether gross morphological characteristics and colony numbers of isolated HSC are within expected limits. One-day old NSG mice generated from timed matings were housed with foster-dams for 24 hours post-irradiation (sub-lethal, 1 Gy, whole body irradiation) at which time they are transplanted with 1×10^6−2×10^6 pre-cultured HSC intra-hepatically (i.h.) in a volume of 20 μl using a Hamilton syringe and a 30 gauge ½ inch needle. The pups were immediately returned to their foster-dams and allowed to nurse until weaning at 28 days. Human/mouse chimerism was evaluated in peripheral blood at 15 weeks of age by determining the relative percentages of murine and human CD45+ cells by flow cytometry. Once human CD45+ cells were detected, analysis was extended to include human CD3, CD4, CD8, CD11c and CD19 on all blood collections. Successfully engrafted mice were selected when the fraction of human CD45+ cells in peripheral blood exceeded 60% (NSG-hu).
To determine the in vivo activity of hTL1A-Ig on human Tregs, humanized mice were generated using human fetal liver CD34^+ cells transferred into NOD, SCID, common γ-chain deficient (NSG) recipient mice, as described above. […] The majority of human CD45+ lymphocytes in the spleen were T cells (˜50%) followed by B cells (˜35%), NK cells (˜2-3%) and dendritic cells (˜1%).

[4] = system: peripheral blood Treg cells; test: Peripheral blood Treg expansion, T cell subsets and serum cytokines in rhesus macaques; type: in vivo, rhesus macaque; details: for expansion of the Treg compartment at peak: 1.5 mg/kg, single IV; for expansion of the Treg compartment at peak / time of peak relative fold-expansion of Treg: peripheral blood; for serum levels of IFN-γ and TGF-β: by day 4 after treatment; for serum levels of IL-2, IL-4, IL-5, IL-10 or TNF-α: day 0, day 2, day 4, Luminex
Protocol: as §1, §2

Molecule | histopathology of midbrain, brainstem, liver and pancreas [1] | histopathology of sigmoid colon [1] | histopathology of terminal ileum [1] | half-life [2] | total frequency of Treg and proportion of Treg in active proliferation (Ki67+) ([3]; day 5, spleen, lymph node and small intestine) | expression of CD69 in CD4+ and CD8+ conventional cells ([3]; lymph nodes) | mean Treg value ([3]; lymph nodes, day 5, 100 μg i.p.) | mean Treg value (±SEM) ([3]; small intestine, day 5, 100 μg i.p.) | mean Treg value (±SEM), FoxP3+ out of total CD4+CD25hiCD127- cells ([3]; spleen, day 5, 100 μg i.p.) | overall balance of hCD45+, hCD4+ or hCD8+ cells ([3]; spleen, lymph nodes, small intestine, day 5 after injection) | expression of CD69 in CD8+ conventional cells ([3]; spleen, p=0.0064) | expression of CD69 in CD4+ conventional cells ([3]; spleen, p=0.0363) | expansion of the Treg compartment at peak [4] | serum levels of IFN-γ and TGF-β [4] | serum levels of IL-2, IL-4, IL-5, IL-10 or TNF-α [4] | time of peak relative fold-expansion of Treg [4] | Treg expansion ([4]; 0.5 mg/kg dose versus 1.5 mg/kg)
hTL1A-Ig: extracellular domain of human TL1A fused to hinge-CH2-CH3 domain of human IgG1, SEQ ID NO: 16 | no evidence of inflammation or pathology | mild, multifocal, lymphoplasmacytic infiltrates | mild, diffuse mucosal and submucosal edema | 12.5 h | significant increase | not in lymph nodes | 1.94±0.21 | 4.54±0.69% | 1.71±0.24% | did not significantly alter | increased expression of CD69 | increased expression of CD69 | approximately 3 fold | trend toward decreased levels | no detectable changes | 4 days post-treatment | 
B1 | no evidence of inflammation or pathology | mild, multifocal, lymphoplasmacytic infiltrates | mild, diffuse mucosal and submucosal edema |  |  |  |  |  |  |  |  |  | approximately 3 fold | trend toward decreased levels | no detectable changes | 4 days post-treatment | non-significantly reduced trend
